In patent US20130287781A1 (GlaxoSmithKline, published 2013):

What was measured:
GST-human NOGO-A56 [1] = biological target: T1, GST-human NOGO-A56 (human); test: direct ELISA, GST-human NOGO-A56 coated at 1.0 mcg/ml, purified antibody, OD490
T1 construct: Expressed in E. coli BL21 from pGEX-6P1 and purified on glutathione-sepharose; the GST tag is part of the protein in the assays; also called GST-Nogo-A 5+6; GST Nogo-A 5 + 6
Experimental: Wells were rinsed once with TBS+0.05% Tween (TBST) then incubated with 2% BSA in TBST to block non-specific binding sites at room temperature for 1 hour. Antibodies were diluted in TBST+2% BSA to 10 μg/ml and ½ dilutions made from this. Antibodies were added to wells in duplicate and incubated at room temperature for 1 hour. […] The wells were washed three times with TBST and then incubated with 100 μl OPD peroxidase substrate (Sigma) per well for 10 minutes. The colour reaction was stopped by the addition of 25 μl concentrated H₂SO₄. Optical density at 490 nm was measured using a plate reader. Background values read from wells with no antibody were subtracted.

GST-human NOGO-A56 [2] = biological target: T1, GST-human NOGO-A56; test: SPR (Biacore) off-rate on NOGO chip, panel of H6FL CDR H3 variants with L13FL

T1 sequence (chain, as listed by the source limits assumed): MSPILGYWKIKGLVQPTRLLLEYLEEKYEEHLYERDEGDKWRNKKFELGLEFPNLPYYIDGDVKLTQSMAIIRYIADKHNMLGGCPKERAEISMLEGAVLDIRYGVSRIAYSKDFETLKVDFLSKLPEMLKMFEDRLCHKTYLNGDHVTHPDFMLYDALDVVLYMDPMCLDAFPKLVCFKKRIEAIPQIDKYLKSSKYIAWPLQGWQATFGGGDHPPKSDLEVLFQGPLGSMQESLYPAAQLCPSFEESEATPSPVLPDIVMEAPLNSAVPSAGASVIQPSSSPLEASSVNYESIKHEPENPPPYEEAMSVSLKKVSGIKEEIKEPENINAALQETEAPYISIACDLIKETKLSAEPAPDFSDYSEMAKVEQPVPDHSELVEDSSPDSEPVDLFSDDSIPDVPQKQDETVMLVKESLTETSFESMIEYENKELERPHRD

EC50 (read off the curve) (GST-human NOGO-A56 [1])	koff (GST-human NOGO-A56 [2])	Binder
–	0.0315 s⁻¹	H6L13 variant with VH CDR3 GAGY (antibody, human IgG1, kappa, V domains shown, Single point variant of H6FL with L13FL) VH: QVQLVQSGAEVKKPGASVKVSCKASGYTFTSYWMHWVRQAPGQGLEWIGNINPSNGGTNYNEKFKSRATMTRDTSTSTAYMELSSLRSEDTAVYYCELGAGYWGQGTLVTVSS VL: DIVMTQSPLSLPVTLGQPASISCRSSKSLLYKDGKTYLNWFQQRPGQSPQLLIYLMSTRASGVPDRFSGGGSGTDFTLKISRVEAEDVGVYYCQQLVEYPLTFGQGTKLEIKR
–	0.019 s⁻¹	H6L13 variant with VH CDR3 GLGY (antibody, human IgG1, kappa, V domains shown, Single point variant of H6FL with L13FL) VH: QVQLVQSGAEVKKPGASVKVSCKASGYTFTSYWMHWVRQAPGQGLEWIGNINPSNGGTNYNEKFKSRATMTRDTSTSTAYMELSSLRSEDTAVYYCELGLGYWGQGTLVTVSS VL: DIVMTQSPLSLPVTLGQPASISCRSSKSLLYKDGKTYLNWFQQRPGQSPQLLIYLMSTRASGVPDRFSGGGSGTDFTLKISRVEAEDVGVYYCQQLVEYPLTFGQGTKLEIKR
–	0.0216 s⁻¹	H6L13 variant with VH CDR3 GQGW (antibody, human IgG1, kappa, V domains shown, Single point variant of H6FL with L13FL) VH: QVQLVQSGAEVKKPGASVKVSCKASGYTFTSYWMHWVRQAPGQGLEWIGNINPSNGGTNYNEKFKSRATMTRDTSTSTAYMELSSLRSEDTAVYYCELGQGWWGQGTLVTVSS VL: DIVMTQSPLSLPVTLGQPASISCRSSKSLLYKDGKTYLNWFQQRPGQSPQLLIYLMSTRASGVPDRFSGGGSGTDFTLKISRVEAEDVGVYYCQQLVEYPLTFGQGTKLEIKR

Second part, the binder before the results:

Binder	EC50 (read off the curve) (GST-human NOGO-A56 [1])	koff (GST-human NOGO-A56 [2])
H1L11 (antibody, human IgG1, kappa, V domains shown, CDR H3 GQGY; also called humanised 2A10 variant H1L11 of WO05/061544) VH: QVQLVQSGAEVKKPGASVKVSCKASGYTFTSYWMHWVRQAPGQGLEWMGNINPSNGGTNYNEKFKSRVTMTRDTSTSTVYMELSSLRSEDTAVYYCELGQGYWGQGTLVTVSS VL: DIVITQSPLSLPVTLGQPASISCRSSKSLLYKDGKTYLNWFQQRPGQSPQLLIYLMSTRASGVPDRFSGGGSGTDFTLKISRVEAEDVGVYYCQQLVEYPLTFGQGTKLEIKR	~0.2 µg/mL	–
H6L13 variant with VH CDR3 GDGY (antibody, human IgG1, kappa, V domains shown, Single point variant of H6FL with L13FL) VH: QVQLVQSGAEVKKPGASVKVSCKASGYTFTSYWMHWVRQAPGQGLEWIGNINPSNGGTNYNEKFKSRATMTRDTSTSTAYMELSSLRSEDTAVYYCELGDGYWGQGTLVTVSS VL: DIVMTQSPLSLPVTLGQPASISCRSSKSLLYKDGKTYLNWFQQRPGQSPQLLIYLMSTRASGVPDRFSGGGSGTDFTLKISRVEAEDVGVYYCQQLVEYPLTFGQGTKLEIKR	–	0.0212 s⁻¹
H6L13 variant with VH CDR3 GIGY (antibody, human IgG1, kappa, V domains shown, Single point variant of H6FL with L13FL) VH: QVQLVQSGAEVKKPGASVKVSCKASGYTFTSYWMHWVRQAPGQGLEWIGNINPSNGGTNYNEKFKSRATMTRDTSTSTAYMELSSLRSEDTAVYYCELGIGYWGQGTLVTVSS VL: DIVMTQSPLSLPVTLGQPASISCRSSKSLLYKDGKTYLNWFQQRPGQSPQLLIYLMSTRASGVPDRFSGGGSGTDFTLKISRVEAEDVGVYYCQQLVEYPLTFGQGTKLEIKR	–	0.0257 s⁻¹
H6L13 variant with VH CDR3 GQFY (antibody, human IgG1, kappa, V domains shown, Single point variant of H6FL with L13FL) VH: QVQLVQSGAEVKKPGASVKVSCKASGYTFTSYWMHWVRQAPGQGLEWIGNINPSNGGTNYNEKFKSRATMTRDTSTSTAYMELSSLRSEDTAVYYCELGQFYWGQGTLVTVSS VL: DIVMTQSPLSLPVTLGQPASISCRSSKSLLYKDGKTYLNWFQQRPGQSPQLLIYLMSTRASGVPDRFSGGGSGTDFTLKISRVEAEDVGVYYCQQLVEYPLTFGQGTKLEIKR	–	0.0335 s⁻¹
H6L13 variant with VH CDR3 GQLY (antibody, human IgG1, kappa, V domains shown, Single point variant of H6FL with L13FL) VH: QVQLVQSGAEVKKPGASVKVSCKASGYTFTSYWMHWVRQAPGQGLEWIGNINPSNGGTNYNEKFKSRATMTRDTSTSTAYMELSSLRSEDTAVYYCELGQLYWGQGTLVTVSS VL: DIVMTQSPLSLPVTLGQPASISCRSSKSLLYKDGKTYLNWFQQRPGQSPQLLIYLMSTRASGVPDRFSGGGSGTDFTLKISRVEAEDVGVYYCQQLVEYPLTFGQGTKLEIKR	–	0.0132 s⁻¹
H6L13 variant with VH CDR3 GQNY (antibody, human IgG1, kappa, V domains shown, Single point variant of H6FL with L13FL) VH: QVQLVQSGAEVKKPGASVKVSCKASGYTFTSYWMHWVRQAPGQGLEWIGNINPSNGGTNYNEKFKSRATMTRDTSTSTAYMELSSLRSEDTAVYYCELGQNYWGQGTLVTVSS VL: DIVMTQSPLSLPVTLGQPASISCRSSKSLLYKDGKTYLNWFQQRPGQSPQLLIYLMSTRASGVPDRFSGGGSGTDFTLKISRVEAEDVGVYYCQQLVEYPLTFGQGTKLEIKR	–	0.00966 s⁻¹
